The text below walks through data of article PMC7205571 (Structure (London, England : 1993), 2020).

The target of one experiment is hRpn13 Pru (1–150) (human, UniProt Q16186 1-150, 13C-labelled). The experiment can be described thus: NMR structure.
The target in another experiment is monoubiquitin (UniProt P0CG48 1-76). The experiment can be described thus: NMR 13C-half-filtered NOESY.

For the molecule QEPEPPEPFEYIDD (peptide, UniProt Q99460 940-953, looked up) [hRpn2 (940–953)], the binding result with hRpn13 Pru (1–150) is given as “binds”.

B1: hRpn2-bound hRpn13 (hRpn13 Pru:hRpn2 (940–953) complex) (complex, human)
chain 1: MTTSGALFPSLVPGSRGASNKYLVEFRAGKMSLKGTTVTPDKRKGLVYIQQTDDSLIHFCWKDRTSGNVEDDLIIFPDDCEFKRVPQCPSGRVYVLKFKAGSKRLFFWMQEPKTDQDEEHCRKVNEYLNNPPMPGALGASGSSGHELSAL
chain 2: QEPEPPEPFEYIDD
modifications: 13C-labelled
Turning to B1, the binding result with monoubiquitin is listed as “binds”.
